# Measured values taken from paper PMC10159003.
# Several values for one entry are separate records, joined by “and”; a condition that tells them apart may be missing. Equal entries are not always repeated. Where two headings read alike, the source gives them in different places.
# Legend:
# [1] = target: full-length RtcR (S. Typhimurium); assay: SEC
# [2] = target: full-length RtcR (S. Typhimurium); assay: SEC; remark: listed apart in the source
substance,measurement,setting,value
full-length RtcR (natural protein),stoichiometry N,[1],2 and 6
same,stoichiometry N,[2],2 and 6
